Reference: patent US20100305034A1 (UNIVERSITY OF BRISTOL, published 2010)

Biological target: the molecule itself
Assay: Western blot of conditioned media from transfected HEK293 cells
Method: Full length VEGF₁₆₅b or VEGF₁₆₅ (generated by PCR from tissue) was cloned into the expression vector pcDNA₃ using standard methodology, and then transfected into HEK 293 cells and a stable cell line generated using Geneticin selection. Confluent cells were incubated in basal M200 endothelial cell medium for 48 hours, containing neither serum nor Geneticin, and the conditioned media assayed for VEGF concentration using a pan VEGF ELISA(R&D). Control conditioned media (pcDNA3-CM) was collected in the same way from HEK293 cells stably transfected with pcDNA₃. […] VEGF₁₆₅b was the same molecular weight as VEGF₁₆₅, and both isoforms correspond to previously published molecular weights for VEGF₁₆₅ (Ferrara N et al Biophys. Res. Comm. 1989; 161: 851-8). […] This is probably due to the fact that commercially available VEGF₁₆₅ is not glycosylated. There was some VEGF₁₆₅b and VEGF₁₆₅ in the conditioned media that appeared to be de-glycosylated, but this was a small fraction of the total VEGF.

B1: VEGF165b (recombinant, produced by transfected HEK293 cells) (ligand)
chain: APMAEGGGQNHHEVVKFMDVYQRSYCHPIETLVDIFQEYPDEIEYIFKPSCVPLMRCGGCCNDEGLECVPTEESNITMQIMRIKPHQGQHIGEMSFLQHNKCECRPKKDRARQENPCGPCSERRKHLFVQDPQTCKCSCKNTDSRCKARQLELNERTCRSLTRKD
notes: Secreted into conditioned medium of HEK293 cells stably transfected with pcDNA3-VEGF165b; mostly glycosylated (about 23 kDa); also called VEGF165b-CM; new isoform VEGF165b
binding result: binds
